Our source for the cell proliferation (CyQUANT DNA content) of cultured adult hippocampal progenitor cells, 1 nM GIP, 48 h (% increase relative to control) and methyl-[3H]-thymidin incorporation in cultured adult hippocampal progenitor cells, 1 nM GIP, 24 h (% increase compared to control) values is patent US20050245441A1.

The target of this test is rat GIP receptor (rat) (UniProt P43219). As to the kind of experiment: cell-based or functional assay.
Sequence of UniProt P43219 (P43219 19-455): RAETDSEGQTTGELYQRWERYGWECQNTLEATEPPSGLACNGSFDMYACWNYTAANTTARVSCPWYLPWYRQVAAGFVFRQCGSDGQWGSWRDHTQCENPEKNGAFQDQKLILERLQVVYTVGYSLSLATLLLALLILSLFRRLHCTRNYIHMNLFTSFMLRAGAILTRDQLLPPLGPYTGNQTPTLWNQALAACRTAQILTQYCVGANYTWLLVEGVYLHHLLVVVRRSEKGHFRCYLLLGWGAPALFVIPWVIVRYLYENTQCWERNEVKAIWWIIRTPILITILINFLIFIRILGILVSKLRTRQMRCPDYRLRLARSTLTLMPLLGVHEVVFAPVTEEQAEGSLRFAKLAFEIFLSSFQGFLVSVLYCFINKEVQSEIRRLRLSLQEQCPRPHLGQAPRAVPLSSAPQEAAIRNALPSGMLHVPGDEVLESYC

Turning to “synthetic porcine GIP (Sigma) (from UniProt P01281 1-42) (peptide)”, the cell proliferation (CyQUANT DNA content) of cultured adult hippocampal progenitor cells, 1 nM GIP, 48 h (% increase relative to control) was found to be 74.5 and the methyl-[3H]-thymidin incorporation in cultured adult hippocampal progenitor cells, 1 nM GIP, 24 h (% increase compared to control) was 32.4.
